The values below come from patent US20050209548A1, “Electroporation-mediated intravascular delivery” (priority 2004, published 2005).

For data set [1] the following is noted: rabbit, in vivo.
Procedure: Experiments were performed in 12 New Zealand white rabbits of either sex (2.5-3.4 kg) preanesthetized with xylazine (2 mg.kg^−1) and ketamine (50 mg.kg^−1) intramuscularly and an injection of alphachloralose (30 mg.kg^−1) intraveneously through an ear vein. A supplemental dose of 10 mg.kg^−1 chloralose was given every hour. The anesthetic state was maintained such that the toe-pinching reflex and corneal reflexes were absent.
Animals were placed supine and strapped on the surgical table. The trachea was intubated to allow spontaneous breathing of ambient air. Electrocardiogram (EKG) of the animal was obtained by using Lead II in differential mode. End-tidal CO2 tension was monitored by a CO2 analyzer (Datex, Puritan-Bennett). Body temperature was kept at the 38-38.5 °C range by radiant heating.
A longitudinal incision in the cervical region was made in the rabbit to expose the common carotid arteries on both sides. Approximately 6 cm in length of carotid artery on each side was isolated from the surrounding tissue and vagosympathetic nerve trunk. The caudal end of the carotid artery on one side was transiently occluded with a vascular clip at the junction between the neck and chest. A small incision was then made at the rostral end of the artery (just below transversus vein) to push an electroporator catheter (FIG. 1) through this incision. […]
Lead II EKG Nvas differentially amplified and the output was continuously monitored on an osciloscope (Tektronix) and recorded on a Gould TA-2000 thermal-array recorder for evaluation. […]
Arterial segments were subsequently freeze sectioned (10 micron) transversely. Microscopic slides containing arterial sections were observed under a Zeiss confocal laser (argon-krypton) scan microscope (LSM 410 Invert), (excitation at 495 nm and emission at 515 nm) to obtain video image (magnification 40 times) of fluorescence. Subsequently, control and test samples were compared by analyzing fluorescence intensity by Line Intensity Scan at different depths of the arterial wall using commercially obtained software (Image 1: Universal Imaging Corp.). […]
For data set [2] the following is noted: rabbit, in vivo. This is another data set of the same source.
Procedure: This catheter was used in the following experiment. Three rabbits weighing 4 Kg were anesthetized with xylazine (0.1 ml/kg) and ketamine (0.5 ml/1 g i.m.). General anesthesia was maintained with α-chloralose (30 mg/Kg. i.v.). […] A femoral artery in the leg on one side of the rabbit was exposed. A 5F sheath was introduced and the catheter was pushed under fluoroscopic guidance to the right or left carotid artery. […] Radiocontrast fluid was infused (panel b) allowing confirmation of the catheter position, the patient artery, the balloon and the built-in radiopaque marker, as well as presence of the dye in the side branches. After balloon inflation, (panel c) 1 ml of fluoresceinated heparin (concentration 1 mg dissolved in 2 ml: biological activity of heparin as per manufacturer: 167 U) was infused between the occluded segment via the drug port and the artery pulsed immediately with the balloons in the inflated condition. Initially, field parameters tested were ˜60V and four pulses each of ˜600 μs pulse length. […] In a subsequent experiment, voltage and pulse length were changed to 57V and 22 ms, respectively. As before, four pulses were delivered from ECM 600 pulse exponential generator. […] In addition, fluorescence due to collagen and elastin was also present.
The conditions of data set [3]: Molecular Probe, Inc.; cited from earlier work.
The conditions of data set [4]: pig, in vivo; cited from earlier work.

heparin: in data set [1], the “duration of sustained delivery in vessel” value is recorded as “at least 12 hours”, the “location in the vessel wall” value is listed as “mostly present in the media but also in the intima” and the “washout of local delivery from vessel” value was “completely washes out in two hours”.

With fluoresceinated heparin [F-heparin], the “penetration and uptake after autofluorescence correction and subtraction of control artery fluorescence” value in data set [2] was “deep penetration and uptake”. Further, the activity in data set [3] is 167 unit/mg.

For hirudin, in data set [4], the “drug washed out of the vessel” value is 80% and the “level in vessel compared with passive delivery” value is listed as “the level is the same as for the passive delivery”.
